Experiments:
[1] = test system: OS-17 xenograft (Osteosarcoma); experiment: PPTP in vivo xenograft OS-17; details: OS-17 (Osteosarcoma) xenograft, 0.5 mg per mouse ip twice weekly for four weeks
Method: (§1) The PPTP includes a molecularly characterized in vitro panel of cell lines (n=27) and in vivo panel of xenografts (n=61) representing most of the common types of childhood solid tumors and childhood ALL (acute lymphoblastic leukemia). LCF/HCA anti-IGF1R antibody was tested against the PPTP in vitro panel at concentrations ranging from 0.01 nM to 100 nM; and was tested against the PPTP in vivo panel at a dose of 0.5 mg per mouse administered twice weekly for four weeks via intraperitoneal injection. Three measures of antitumor activity were used: 1) response criteria modeled after the clinical setting; 2) treated-to-control (T/C) tumor volume at day 21; and 3) a time to event (4-fold increase in tumor volume) measure based on the median EFS of treated and control lines (intermediate activity required EFS (event-free survival) T/C>2, and high activity additionally required a net reduction in median tumor volume at the end of the experiment).
(§2) Stage 1 testing involved testing an agent across the entire PPTP panel of childhood cancer xenograft lines at its maximum tolerated dose (MTD) or at a dose selected based on PK/PD (pharmacokinetic/pharmacodynamic) studies using adult preclinical models.
(§3) In vivo solid tumor testing: For each xenograft line, 10 mice bearing subcutaneous (SC) tumors initiated treatment when the tumors were between 0.2-0.5 cm^3 in volume. Two perpendicular tumor diameters were measured at once weekly intervals with digital vernier calipers. Assuming tumors to be spherical, volumes were calculated from the formula (π/6)×d3, where d represented the mean diameter.
(§4) Drug: LCF/HCA was dissolved in 20mM sodium acetate pH 5 buffer containing 150 mM sodium chloride, and administered intraperitoneally twice weekly for 4 consecutive weeks at a dose of 0.5 mg per animal. The antibody was provided to each testing site in coded vials for blinded testing according the PPTP's standard operating procedures.
(§5) Median Group Response: Each individual mouse in each treatment group was assigned a response score (see Tables above) and a median score for the treatment group was calculated and then each treatment group was assigned an overall response according to the table below.
(§6) Statistical Methods: Event-free survival (EFS) distributions of each treatment group were compared to the EFS distribution of the respective control group using the exact log rank test. P-values were 2-sided & were not adjusted for multiple comparisons given the exploratory nature of this study. P-values<0.05 were considered to be significant.

[2] = test system: OS-9 xenograft (Osteosarcoma); experiment: PPTP in vivo xenograft OS-9; design: key to EFS activity notation (high, intermediate, indeterminate): high (!); intermediate (#); indeterminate (^); details: OS-9 (Osteosarcoma) xenograft, 0.5 mg per mouse ip twice weekly for four weeks
Method: as §1, §2, §3, §4, §5, §6

EW5 xenograft (Ewings) = experiment: PPTP in vivo xenograft EW5; design: key to EFS activity notation (high, intermediate, indeterminate): high (!); intermediate (#); indeterminate (^)
Method: as §1, §2, §3, §4, §5, §6

[3] = 0.5 mg per mouse ip twice weekly for four weeks

B1: LCF/HCA: fully human anti-IGF1R antibody comprising the mature 19D12/15H12 light chain F (LCF) and mature heavy chain A (HCA) (antibody, V domains shown)
VH: EVQLVQSGGGLVHPGGSLRLSCAASGFTFSSFAMHWVRQAPGKGLEWISVIDTRGATYYADSVKGRFTISRDNAKNSLYLQMNSLRAEDMAVYYCARLGNFYYGMDVWGQGTTVTVSS
VL: EIVLTQVPDFQSVTPKEKVTITCRASQSIGSSLHWYQQKPDQSPKLLIKYASQSLSGVPSRFSGSGSGTDFTLTINSLEAEDAAAYYCHQSSRLPHTFGGGTKVEIKRT
EFS T/C [1]: 2 | Median Final RTV [1]: >4 | Overall Group Response [1]: PD2 (1 < MS ≦ 3) | Tumor Volume T/C ([1]; day 21): 0.55 | EFS T/C [2]: > 1.2 | EFS activity notation (high, intermediate, indeterminate) [2]: ^ | Median Final RTV [2]: 0.4^ | Tumor Volume T/C ([2]; day 21): 0.31 | EFS T/C (EW5 xenograft (Ewings); [3]): > 2.3 | EFS activity notation (high, intermediate, indeterminate) (EW5 xenograft (Ewings); [3]): ! | Median Final RTV (EW5 xenograft (Ewings); [3]): 0.4! | Overall Group Response (EW5 xenograft (Ewings); [3]): CR* (7 < MS ≦ 9) | Tumor Volume T/C (EW5 xenograft (Ewings); day 21, 0.5 mg per mouse ip twice weekly for four weeks): 0.12

— patent publication US20110262525A1, “METHODS OF TREATMENT” (SCHERING CORPORATION, priority 2006, published 2011)
